Measurements reported in patent US20240026343A1, “METHOD FOR SCREENING DIMERIZED CYCLIC PEPTIDE” (AJINOMOTO CO., INC., priority 2021, published 2024).

B1: aMD4dY-Jun-cys-N11-SecM-GS3: c-Met binding cyclic peptide-leucine zipper fusion for ribosome display, SEQ ID NO: 71 (protein)
chain: MAETCRQFNRRTHEVWNLDCGAAPAAPAPAAGGRIARLEEKVKTLKAQNSELASTANMLREQVAQLKQKVMNGCGGKDHLIHNHHKHEHAHAEHLFSTPVWISQAQGIRAGGSGSGS
modifications: aMD4dY-Jun-cys-N11-SecM-GS3; DISULFID 5..20 Disulfide bridge between Cys-5 and Cys-20
B2: EMP-Jun-cys-N11-SecM-GS3: EMP-leucine zipper fusion for ribosome display, SEQ ID NO: 87 (protein)
chain: MAETGGLYACHMGPMTWVCQPLRGAAPAAPAPAAGGRIARLEEKVKTLKAQNSELASTANMLREQVAQLKQKVMNGCGGKDHLIHNHHKHEHAHAEHLFSTPVWISQAQGIRAGGSGSGS
modifications: EMP-Jun-cys-N11-SecM-GS3; DISULFID 10..19 Disulfide bridge between Cys-10 and Cys-19

What was measured:
[1] = molecular target: T1, Recombinant Human HGFR/c-MET Fc Chimera Protein (Homo sapiens, UniProt P08581); assay: Ribosome display enrichment on immobilized c-Met (Example 4); assay type: binding; conditions: starting DNA mix 1:50:50 (aMD4dY:TPO:EMP′ fusions); one round; FIGS. 15, 16
T1 construct: purchased R&D systems 8614-MT-100
Protocol: (§1) DNA transcription was carried out using T7 RNA polymerase. T7 RNA polymerase (Takara Bio, 2540A) and rNTPs (Promega, E6000) were used for transcription. 11 μL of ultrapure water, 2 μL of 10×T7 RNA polymerase buffer, 2 μL of 50 mM DTT, 2 μL of 25 mM rNTPs, 1 μL of T7 RNA polymerase, and 1 μL of DNA mix were mixed and reacted in a constant temperature bath at 37° C. for 6 hours. A 50 mM EDTA solution was then added. It was purified with RNA Clean & Concentrator 5 (ZYMO […], R1015) and made into a 2 μM mRNA mix.
PURExpress ΔRF1,2,3 kit was used for translation expression of the prepared library. 2 μL of solution A, 1.5 μL of solution B, 1 μL of mRNA mix, and 0.5 μL of ultrapure water were mixed and cultured in a 37° C. constant temperature bath for 2 hours. After the reaction, the reaction vessel was placed on ice, and 20 μL of ice-cold 1×TBSM-T buffer (50 mM Tris-HCl, 150 mM NaCl, 50 mM MgCl2, 0.05% Tween 20) was added to the formed ribosome-cyclic peptide-leucine zipper fusion-mRNA complex. This complex reaction solution was used in (4-7) below.
Immobilization of target molecules to magnetic beads was carried out. […]

HGF-Erk-SRE pathway = assay: SRE luciferase reporter assay of cell-free translation products from ribosome display DNAs (Example 4); assay type: cell-based; conditions: HEK293E cells with SRE reporter; cell-free translation product at 25- to 625-fold dilution; HGF comparator; FIG. 16
Protocol: For cell-free translation, to 20 ng of each DNA, 2.5 μL of Solution I, 0.25 μL of Solution II, 0.5 μL of Solution III, and 1.75 μL of water were added, and the mixture was incubated at 37° C. for 6 hours to carry out the translation reaction.
Reporter assays were carried out as follows. To 25 μL of Opti-MEM medium (Thermo Fisher Scientific), 0.6 μL of Attractene Transfection Reagent (QIAGEN) was added and incubated at room temperature for 5 minutes. To the above mixed solution, a mixed solution of 25 μL of Opti-MEM and 1 μL of SRE reporter vector (QIAGEN) was added and incubated at room temperature for 20 minutes. This mixed solution was added to a 96-well plate, HEK293E cells were seeded thereon at 40,000 cells/well, and incubated overnight at 37° C. in a 5% CO2 incubator. After transfection, all the culture supernatant was removed, and 100 μL of Opti-MEM medium (evaluation basal medium), containing 0.5% FBS (Thermo Fisher Scientific), 1% non-essential amino acid solution (Thermo Fisher Scientific), and penicillin-streptomycin (Nacalai Tesque), was added thereto, which was cultured at 37° C. for 4 hours to starve the cells.
To the evaluation basal medium, 0 to 100 ng/mL HGF was added, or the above cell-free expression reaction solution was added at a 25- to 625-fold dilution with respect to the medium, and 100 μL of the evaluation basal medium was added to the cells. The cells were stimulated by culturing overnight at 37° C. in a 5% CO2 incubator.
Dual-Luciferase Reporter Assay System (Promega) was used for signal intensity detection. […] Activation of the HGF-Erk-SRE pathway was quantified by detecting Firefly luciferase luminescence from cell lysates with a plate reader. Subsequently, 50 μL of Glo & Stop reagent solution was added, and after 10 minutes, luminescence of Renilla luciferase, an internal standard, was detected to quantify the cell count. The signal activity of each sample was quantified as SRE activity=(luminescence intensity of Firefly luciferase)/(luminescence intensity of Renilla luciferase). […]

[2] = molecular target: T2, Recombinant Human Erythropoietin R Fc Chimera Protein (Homo sapiens, UniProt P19235); assay: Ribosome display enrichment on immobilized EPO receptor (Example 5); assay type: binding; conditions: starting DNA mix 1:50:50 (EMP:aMD4dY:TPO fusions); one round; FIGS. 17, 18
T2 construct: purchased R&D systems 963-ER-50
Protocol: The DNA sequence of EMP-Jun-cys-N11-SecM-GS3 was prepared by PCR. Two types of DNA sequences, aMD4dY-Jun-cys-N11-SecM-GS3 and TPO-Jun-cys-N11-SecM-GS3, prepared in Example 4 were used. A DNA mix was prepared by mixing DNAs, EMP-Jun-cys-N11-SecM-GS3, aMD4dY-Jun-cys-N11-SecM-GS3, and TPO-Jun-cys-N11-SecM-GS3, at a ratio of 1:50:50.
as §1, with “E6000) as well” for “E6000)”
PURExpress ΔRF1,2,3 kit was used for translation expression of the prepared library. 2 μL of solution A, 1.5 μL of solution B, 1 μL of mRNA mix, and 0.5 μL of ultrapure water were mixed and cultured in a 37° C. constant temperature bath for 2 hours. […]
Three types of DNAs, EMP-Jun-cys-N11-SecM-GS3, aMD4dY-Jun-cys-N11-SecM-GS3, and TPO-Jun-cys-N11-SecM-GS3, along with DNA mix and DNA mix2 were evaluated with 2100 Bioanalyzer (Agilent technologies). […]

T1 sequence (P08581 with tags, fused parts or gaps limits assumed): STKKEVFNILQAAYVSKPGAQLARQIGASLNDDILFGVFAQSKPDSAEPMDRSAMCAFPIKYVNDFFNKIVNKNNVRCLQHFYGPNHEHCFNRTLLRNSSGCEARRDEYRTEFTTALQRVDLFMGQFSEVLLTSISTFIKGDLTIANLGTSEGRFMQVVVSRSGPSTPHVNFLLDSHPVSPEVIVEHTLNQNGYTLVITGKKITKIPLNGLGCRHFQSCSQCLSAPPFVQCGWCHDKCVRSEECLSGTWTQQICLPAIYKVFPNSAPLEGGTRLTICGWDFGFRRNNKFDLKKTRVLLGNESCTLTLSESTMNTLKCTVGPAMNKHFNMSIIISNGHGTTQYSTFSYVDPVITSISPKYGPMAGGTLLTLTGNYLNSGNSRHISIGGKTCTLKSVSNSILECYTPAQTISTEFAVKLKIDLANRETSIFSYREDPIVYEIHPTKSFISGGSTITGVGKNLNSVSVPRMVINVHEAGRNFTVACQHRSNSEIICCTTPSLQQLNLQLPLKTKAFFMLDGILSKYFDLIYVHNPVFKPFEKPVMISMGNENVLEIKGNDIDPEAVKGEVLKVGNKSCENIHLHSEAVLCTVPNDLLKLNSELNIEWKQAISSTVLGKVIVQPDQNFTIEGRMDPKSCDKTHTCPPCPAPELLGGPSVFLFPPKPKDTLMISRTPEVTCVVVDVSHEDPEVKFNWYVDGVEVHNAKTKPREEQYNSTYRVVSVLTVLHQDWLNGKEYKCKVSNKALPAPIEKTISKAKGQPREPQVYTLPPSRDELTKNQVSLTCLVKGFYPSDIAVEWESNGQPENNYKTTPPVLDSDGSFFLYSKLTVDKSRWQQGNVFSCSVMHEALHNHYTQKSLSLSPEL
T1 sequence (P08581 25-307 limits assumed, change not shown): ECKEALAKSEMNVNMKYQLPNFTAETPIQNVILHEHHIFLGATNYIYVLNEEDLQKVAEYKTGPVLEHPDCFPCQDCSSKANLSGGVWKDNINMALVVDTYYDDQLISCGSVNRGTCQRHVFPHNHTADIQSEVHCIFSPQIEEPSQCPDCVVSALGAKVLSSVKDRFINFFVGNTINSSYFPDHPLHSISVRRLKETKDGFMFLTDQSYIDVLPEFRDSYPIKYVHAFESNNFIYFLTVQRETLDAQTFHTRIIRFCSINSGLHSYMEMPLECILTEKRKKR
T2 sequence (P19235 with tags, fused parts or gaps limits assumed): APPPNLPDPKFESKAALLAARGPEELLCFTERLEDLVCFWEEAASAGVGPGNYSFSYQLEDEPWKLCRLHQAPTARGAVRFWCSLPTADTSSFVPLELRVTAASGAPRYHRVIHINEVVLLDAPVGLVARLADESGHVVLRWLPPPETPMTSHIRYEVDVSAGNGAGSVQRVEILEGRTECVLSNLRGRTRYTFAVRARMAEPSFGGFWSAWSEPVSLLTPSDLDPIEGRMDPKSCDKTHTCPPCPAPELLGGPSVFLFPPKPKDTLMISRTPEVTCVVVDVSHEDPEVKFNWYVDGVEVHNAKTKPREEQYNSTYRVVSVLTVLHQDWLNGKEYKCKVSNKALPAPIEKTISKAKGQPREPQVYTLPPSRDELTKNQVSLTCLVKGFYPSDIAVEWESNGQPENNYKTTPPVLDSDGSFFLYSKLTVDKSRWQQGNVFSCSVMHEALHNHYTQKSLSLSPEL

Molecule | enrichment in DNA mix2 after ribosome display against c-Met [1] | relative SRE reporter activity (relative receptor activity) (HGF-Erk-SRE pathway) | enrichment in DNA mix2 after ribosome display against EPO receptor [2]
B1 | enriched | showed activity | –
B2 | – | – | enriched
